Experimental data taken from patent publication US20210275498A1, “IMIDAZOLYL ETHANAMIDE PENTANDIOIC ACID FOR USE IN THERAPY OF SYMPTOMS RELATED TO EXPOSURE TO LETHAL RADIATION” (priority 2018, published 2021).

Key:
Type in all cases: in vivo
C57BL/6 mice [1] = assay: Body weight after whole-body irradiation (response profile analysis); conditions: Group 6 GL (SCx1): 0.34 mg/kg SC SID Day 1, 2, 3, therapeutic, 5.8 Gy
Procedure: Body weights were assessed twice during acclimation (including Day −3), once prior to irradiation (Day 0), and every 3 days thereafter. Terminal body weights were also collected, with the exception of Animal 4012.
The longitudinal data were analyzed taking into account the mean weight over time in each group and the covariance among the repeated measures by response profile analysis (Fitzmaurice et al., Wiley 2004, p 103-140.). The analysis was specified as a regression model with unstructured covariance to account for the correlation among repeated body weights of the same mouse and indicator variables for treatment groups and time, where the vehicle treatment was used as the reference group and Day 0 was taken as a reference for time.
The response profile analyses provide the following regression coefficients estimated by the restricted maximum likelihood (REML) method: intercept—mean body weight in the reference groups VL (POx1);2 and VH (POx1);8 at Day 0 treatment—difference between the mean body weight in the treatment groups and the vehicle groups at Day 0 time—body weight change from baseline in the reference groups treatment×time—treatment effect at each day estimated by comparison of change from baseline in the treatment groups and control groups For all regression coefficients, p-values and 95%-confidence intervals are provided. This method provides interpretable estimates, is valid if treatment groups differ at baseline, allows for arbitrary patterns in the mean body weight over time (no specific time trend e. g. linear curve assumed) and arbitrary patterns in the covariance. The analysis has certain robustness, as potential risks due to model misspecification are minimal.

C57BL/6 mice [2] = assay: Peripheral hematology after whole-body irradiation; conditions: Group 6 GL (SCx1): 0.34 mg/kg SC SID Day 1, 2, 3, therapeutic, 5.8 Gy
Text: The primary outcome of this study was mortality and secondary outcomes were changes in hematology (peripheral and bone marrow). The endpoints were chosen to follow Animal Rule requirements that state that animal study endpoint be clearly related to the clinical benefit (generally, the enhancement of survival or prevention of major morbidity). The secondary endpoints were chosen to potentially contribute to an understanding of the disease or condition and a characterization of the treatment effect.

C57BL/6 mice [3] = assay: ARS scoring (posture, coat, behavior) after whole-body irradiation; set-up: key to Supporting variable: ARS scores (trend): positive trend (descriptively) +; negative trend (descriptively) −; no difference (descriptively) 0; conditions: Group 6 GL (SCx1): 0.34 mg/kg SC SID Day 1, 2, 3, therapeutic, 5.8 Gy
Procedure: Scores on a scale of 1 to 4 (minimal, mild, moderate and severe) for posture, coat, and behavior were recorded twice daily per SNBL SOP, beginning on Day −3, except on the day of scheduled necropsy when scoring occurred only once. Observations were performed by 5 individuals during the course of the study.
After Day 0, the first ARS scoring began in the morning and the second ARS scoring began 4 to 6 hours following the completion of the morning ARS scoring. On the day of scheduled necropsy, ARS scoring occurred in the morning, prior to necropsy.
Based on the ARS Scoring SNBL SOP, if the sum of the three parameter scores totaled 8 or higher, the animal was considered moribund and was euthanized with an unscheduled necropsy performed according to the moribund animal SOP.

C57BL/6 mice [4] = assay: Gross pathology and histopathology (testes degeneration, bone marrow cellularity) after whole-body irradiation; conditions: Day 14, insignificant (p=0.078); Group 6 GL (SCx1): 0.34 mg/kg SC SID Day 1, 2, 3, therapeutic, 5.8 Gy
Text: (§1) FIG. 13 Testes. (A): Percentage of severity of testes degeneration according to four categories (minimal, mild, moderate and marked) in group 2 (VL (POx1); 2), group 3 (ML (IPx2); 3), group 4 (ML (POx2); 4) and group 5 (ML (POx1); 5). (B): Percentage of severity of testes degeneration according to four categories (minimal, mild, moderate and marked) in group 2 (VL (POx1);2), 6 (GL (SCx1); 6) and 7 (M/GL (PO/SCx1); 7). (C): Percentage of severity of testes degeneration according to four categories (minimal, mild, moderate and marked) in group 8 (VH (POx1); 8 and 9 (MH (POx1); 9).
as §1, with “14 Bone marrow cellularity.” for “13 Testes.”, “bone marrow cellularity decrease” for “severity of testes degeneration”

C57BL/6 mice [5] = assay: as above; set-up: key to Supporting variable: Bone marrow celluarity (trend) / Supporting variable: Testes degradation (trend): positive trend (descriptively) +; negative trend (descriptively) −; no difference (descriptively) 0
[6] = Day 14 necropsy, Group 6: 5.8 Gy, subcutaneous, 0.34 mg/kg, Days 1, 2 and 3
[7] = Group 6 GL (SCx1): 0.34 mg/kg SC SID Day 1, 2, 3, therapeutic, 5.8 Gy

B1: G-CSF: Neupogen (Filgrastim; Granulocyte colony-stimulating factor; G-CSF), positive control article, Amgen (protein, UniProt P09919 31-207, looked up)
Granulocyte …: TPLGPASSLPQSFLLKCLEQVRKIQGDGAALQEKLVSECATYKLCHPEELVLLGHSLGIPWAPLSSCPSQALQLAGCLSQLHSGLFLYQGLLQALEGISPELGPTLDTLQLDVADFATTIWQQMEELGMAPALQPTQGAMPAFASAFQRRAGGVLVASHLQSFLEVSYRVLRHLAQP
modifications: filgrastim
notes: Neupogen (Filgrastim; Granulocyte colony-stimulating factor; G-CSF), positive control article, Amgen
Body weight: Estimate, change relative to vehicle group 2 (C57BL/6 mice [1]; Day 0): -0.5 g
Body weight: Estimate, change relative to vehicle group 2 (C57BL/6 mice [1]; Day 3): 0.3 g
Body weight: Estimate, change relative to vehicle group 2 (C57BL/6 mice [1]; Day 9): -0.4 g
Body weight: Estimate, change relative to vehicle group 2 (C57BL/6 mice [1]; Day 15): 0.4 g
Body weight: Estimate, change relative to vehicle group 2 (C57BL/6 mice [1]; Day 21): 3.3 g
Body weight: Estimate, change relative to vehicle group 2 (C57BL/6 mice [1]; Day 30): 0.5 g
hemoglobin and hematocrit, red blood cells compared to control group 2 (C57BL/6 mice [2]; Day 14): increased
median WBC and neutrophil count compared to control Group 2 (C57BL/6 mice [2]; Day 30): trend in the increase
ARS scoring for coat (C57BL/6 mice [3]; Day 9): increased percentage of mild grade
ARS posture score, most frequent grade (mode) (C57BL/6 mice [3]; Day 15, control group 2 mild (65%)): normal
Supporting variable: ARS scores (trend) (C57BL/6 mice [3]): +
testes degeneration, proportion by severity category (C57BL/6 mice [4]): higher proportions of testes in the minimal category
gross pathology: findings not typical of acute radiation syndrome (C57BL/6 mice [5]; [6]): cysts in spleen were observed
gross pathology: lesions typical of acute radiation syndrome (red discoloration of organs) (C57BL/6 mice [5]; [6]): no red discoloration in the brain, testes
bone marrow cellularity decrease, category (C57BL/6 mice [5]; Day 30, insignificant, Group 6 GL (SCx1): 0.34 mg/kg SC SID Day 1, 2, 3, therapeutic, 5.8 Gy): minimal category in sternum and no marked category in femur bone marrow
Supporting variable: Bone marrow celluarity (trend) (C57BL/6 mice [5]; [7]): +
Supporting variable: Testes degradation (trend) (C57BL/6 mice [5]; [7]): +
